Experimental data taken from publication doi:10.1101/870071 (bioRxiv, 2019).

Tests used:
GST-hExo70 (human Exo70) = GST-hExo70 (human Exo70) (human, UniProt Q9UPT5 1-735); assay: pull-down
GST-Exo70p (yeast Exo70) = GST-Exo70p (yeast Exo70) (yeast, UniProt P19658 1-623); assay: pull-down
GST-Exo70p (yeast Exo70), sequence (P19658 whole entry): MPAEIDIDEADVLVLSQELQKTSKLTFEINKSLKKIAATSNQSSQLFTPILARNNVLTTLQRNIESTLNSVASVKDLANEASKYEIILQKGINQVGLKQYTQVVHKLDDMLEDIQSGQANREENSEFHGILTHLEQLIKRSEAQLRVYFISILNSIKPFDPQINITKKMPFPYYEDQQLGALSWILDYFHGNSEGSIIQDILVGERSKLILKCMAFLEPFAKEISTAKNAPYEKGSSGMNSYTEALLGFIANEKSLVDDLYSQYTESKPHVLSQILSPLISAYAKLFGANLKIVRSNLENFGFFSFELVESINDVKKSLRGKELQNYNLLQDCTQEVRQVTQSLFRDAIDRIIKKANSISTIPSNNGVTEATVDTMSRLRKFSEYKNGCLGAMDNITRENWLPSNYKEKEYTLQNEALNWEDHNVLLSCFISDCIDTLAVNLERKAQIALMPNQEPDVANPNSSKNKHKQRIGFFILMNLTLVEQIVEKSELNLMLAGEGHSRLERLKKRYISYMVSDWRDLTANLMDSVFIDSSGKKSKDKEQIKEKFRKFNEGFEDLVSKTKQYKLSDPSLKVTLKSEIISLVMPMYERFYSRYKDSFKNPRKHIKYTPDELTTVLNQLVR

GST-hExo70 (human Exo70), sequence (Q9UPT5 whole entry): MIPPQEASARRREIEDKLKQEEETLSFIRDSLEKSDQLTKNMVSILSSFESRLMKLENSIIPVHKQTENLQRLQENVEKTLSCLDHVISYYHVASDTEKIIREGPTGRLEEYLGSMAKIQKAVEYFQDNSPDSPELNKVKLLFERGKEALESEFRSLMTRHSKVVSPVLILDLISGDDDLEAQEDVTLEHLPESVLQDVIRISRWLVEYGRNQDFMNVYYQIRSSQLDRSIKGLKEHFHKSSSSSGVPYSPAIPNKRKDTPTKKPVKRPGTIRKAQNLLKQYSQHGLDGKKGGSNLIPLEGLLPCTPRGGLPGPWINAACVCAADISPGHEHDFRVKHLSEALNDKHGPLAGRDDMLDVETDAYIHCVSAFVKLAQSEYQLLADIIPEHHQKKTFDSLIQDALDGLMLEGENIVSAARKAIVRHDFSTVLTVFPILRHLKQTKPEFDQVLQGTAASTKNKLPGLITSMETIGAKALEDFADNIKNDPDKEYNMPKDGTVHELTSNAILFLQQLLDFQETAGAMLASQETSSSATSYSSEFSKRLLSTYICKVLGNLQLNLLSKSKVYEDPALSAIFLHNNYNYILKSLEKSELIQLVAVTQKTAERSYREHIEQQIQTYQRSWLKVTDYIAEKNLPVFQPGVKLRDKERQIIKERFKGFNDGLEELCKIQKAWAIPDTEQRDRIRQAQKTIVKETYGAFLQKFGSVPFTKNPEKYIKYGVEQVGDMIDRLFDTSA

B1: His-GIV-CT (C-terminus of GIV/Girdin), wild type (domain or fragment)
chain: SETLESRHHKIKTGSPGSEVVTLQQFLEESNKLTSVQIKSSSQENLLDEVMKSLSVSSDFLGKDKPVSCGLARSVSGKTPGDFYDRRTTKPEFLRPGPRKTEDTYFISSAGKPTPGTQGKIKLVKESSLSRQSKDSNPYATLPRASSVISTAEGTTRRTSIHDFLTKDSRLPISVDSPPAAADSNTTAASNVDKVQESRNSKSRSREQQSS
fold binding against yeast Exo70p (GST-hExo70 (human Exo70)): 4 fold

B2: His-Bem1p (natural protein, yeast, UniProt P29366 1-551, looked up)
chain: MLKNFKLSKRDSNGSKGRITSADISTPSHDNGSVIKHIKTVPVRYLSSSSTPVKSQRDSSPKNRHNSKDITSPEKVIKAKYSYQAQTSKELSFMEGEFFYVSGDEKDWYKASNPSTGKEGVVPKTYFEVFDRTKPSSVNGSNSSSRKVTNDSLNMGSLYAIVLYDFKAEKADELTTYVGENLFICAHHNCEWFIAKPIGRLGGPGLVPVGFVSIIDIATGYATGNDVIEDIKSVNLPTVQEWKSNIARYKASNISLGSVEQQQQQSITKPQNKSAKLVDGELLVKASVESFGLEDEKYWFLVCCELSNGKTRQLKRYYQDFYDLQVQLLDAFPAEAGKLRDAGGQWSKRIMPYIPGPVPYVTNSITKKRKEDLNIYVADLVNLPDYISRSEMVHSLFVVLNNGFDREFERDENQNNIKTLQENDTATFATASQTSNFASTNQDNTLTGEDLKLNKKLSDLSLSGSKQAPAQSTSGLKTTKIKFYYKDDIFALMLKGDTTYKELRSKIAPRIDTDNFKLQTKLFDGSGEEIKTDSQVSNIIQAKLKISVHDI
fold binding against human Exo70 (GST-Exo70p (yeast Exo70)): 2 fold
